Test [1] addresses T1, human Tim-3 IgV domain (aa. 22-130) (human, UniProt Q8TDQ0 22-130).
T1 construct: range 22-130
As to the kind of experiment: gel filtration of the complex and X-ray crystallography, 2.11 angstrom. On the technique in general: Size exclusion chromatography separates by hydrodynamic size, large species first.

Test [2] concerns the target T2, biotinylated human Tim-3-Fc antigen (in-house preparation) (human, biotinylated).
T2 construct: limits of the Tim-3 part not given
As to the kind of experiment: competition ELISA: biotinylated human Tim-3-Fc premixed with the antibody, added to plate-bound human Galectin-9 (blocked ligand); streptavidin-HRP; Binding (%). On the technique in general: In an ELISA, binding on a coated surface is turned into a signal by an enzyme label.

Test [3] concerns the target T3, human Tim-3 expressed on cells (Jurkat cells stably expressing, Expi293 cells transiently expressing, … (human, UniProt Q8TDQ0 22-301)).
T3 construct: whole, on cells; One entry for all cell-surface forms; the cell type is named under assay; also called human Tim-3 expressed on the cell membrane
As to the kind of experiment: flow cytometry on activated human CD8 T cells, KD from MFI curve. (In general: Flow cytometry measures light scatter and fluorescence of single cells or particles in a stream.)

For test [4], the target named is T3, human Tim-3 expressed on cells (Jurkat …). The experiment in a line: flow cytometry on Jurkat cells stably expressing human Tim-3, KD from MFI curve.
Test [5] shares this target. As to the kind of experiment: flow cytometry on activated human CD4 T cells, KD from MFI curve.
Test [6] has the same target. The experiment in a line: flow cytometry on Expi293 cells transiently expressing human Tim-3, KD from MFI curve.
The target in test [7] is T2, biotinylated human Tim-3-Fc antigen …. The experiment in a line: competition flow cytometry, biotinylated Tim-3-Fc premixed with antibody, binding to phosphatidylserine on apoptotic Jurkat cells (ligand not a protein).

As a reminder, the Kd is a measure of binding affinity in units of concentration. Low readings indicate higher affinity, high ones lower affinity. Broadly, the IC50 is the concentration that gives 50% inhibition.

B1: Hu149_83_scFv antibody (scFv, not shown: small tags and cut ends)
scFv: QVQLVQSGAEVKKPGASVKVSCKASGYTFTDYYMDWVRQAPGQGLEWLGYIYPNKGGTSYNQKFKGRVTMTTDKSTSTAYMELRSLRSDDTAVYYCARSGYGNYYTMDYWGQGTTVTVSSGGGGSGGGGSGGGGSGGGGSDIVMTQSQKFMSTSVGDRVSITCKASQSVGNNVAWYQQKPGQSPKLLIYYASNRYTGVPDRFTGSGSGTDFTLTISNMQSEDLADYFCQQHYSSPSTFGGGTKLEIK
notes: Secreted from E. coli with an N-terminal pelB leader (left out)
Turning to B1, in test [1], the binding result was “binds”.

B2: Ch003-LA antibody (antibody, V domains shown)
VH: EVMLMESGGGLVKLGGSLKLSCAASGFTFSSYYMSWVRQTPEKRLEWVATISNSGGSIYYLDSVKDRFTISRDNAKNTLYLQMSSLNSEDTAVYYCARDPYYSNYVPMDYWGQGTSVTVSS
VL: SIVMTQTPKFMSTSVGDRVSVTCKASQYVDTYVAWYQQKPGQSPKPLIYSASTRHTGVPARFTGSGSGTDFTLTISNVQSEDLAEYFCAQYSSSPLTFGAGTKLELK
notes: IgG1_LALA type antibody (L234A and L235A in the Fc region of IgG1)
Regarding B2, in test [2], the “IC50 (read off the curve)” value is around 0.5 nM. Moreover, the Kd in test [3] amounted to 0.112 nM; in test [4], 0.0828 nM; in test [5], 0.105 nM; in test [6], 0.891 nM. Besides, in test [7], the IC50 amounted to 9.91 nM.

The values are drawn from US20240391997A1 (BRIGHTPATH BIOTHERAPEUTICS, published 2024).
